Results from publication PMC9482650, “Quantitative fragmentomics allow affinity mapping of interactomes” (Nature Communications, 2022).

Experiments:
Test in all cases: holdup assay
Parameters in all cases: key: below the threshold = too weak to quantify, mostly under pKd 3.1 to 4
ARHGAP21, Q5T5U3 = molecular target: T1, ARHGAP21, Q5T5U3
T1 sequence (Q5T5U3 45-169, limits assumed, looked up): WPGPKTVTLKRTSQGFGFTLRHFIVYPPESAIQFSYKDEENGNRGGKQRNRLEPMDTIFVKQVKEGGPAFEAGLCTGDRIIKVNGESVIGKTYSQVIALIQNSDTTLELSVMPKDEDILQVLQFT

DLG1_1, Q12959 = molecular target: DLG1_1, Q12959
DLG1_2, Q12959 = molecular target: DLG1_2, Q12959
DLG1_3, Q12959 = molecular target: DLG1_3, Q12959
DLG2_2, Q15700 = molecular target: DLG2_2, Q15700
DLG3_3, Q92796 = molecular target: T2, DLG3_3, Q92796
T2 sequence (Q92796 374-475, limits assumed, looked up): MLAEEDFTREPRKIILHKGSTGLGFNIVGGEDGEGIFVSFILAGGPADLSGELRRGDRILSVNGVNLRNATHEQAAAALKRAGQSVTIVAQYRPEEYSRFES

FRMPD4, Q14CM0 = molecular target: FRMPD4, Q14CM0
GRASP, Q7Z6J2 = molecular target: GRASP, Q7Z6J2
GRIP2_3, Q9C0E4 = molecular target: GRIP2_3, Q9C0E4
GRIP2_5, Q9C0E4 = molecular target: GRIP2_5, Q9C0E4
GRIP2_7, Q9C0E4 = molecular target: GRIP2_7, Q9C0E4
IL16_3, Q14005 = molecular target: IL16_3, Q14005
Inadl_10, Q8NI35 = molecular target: Inadl_10, Q8NI35
Inadl_5, Q8NI35 = molecular target: Inadl_5, Q8NI35
LDB3, O75112 = molecular target: LDB3, O75112
LIN7A, O14910 = molecular target: T3, LIN7A, O14910
T3 sequence (O14910 103-200, limits assumed, looked up): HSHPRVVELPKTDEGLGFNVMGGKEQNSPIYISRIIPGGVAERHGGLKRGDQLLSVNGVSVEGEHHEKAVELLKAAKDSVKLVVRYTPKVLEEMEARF

LIN7B, Q9HAP6 = molecular target: T4, LIN7B, Q9HAP6
T4 sequence (Q9HAP6 88-185, limits assumed, looked up): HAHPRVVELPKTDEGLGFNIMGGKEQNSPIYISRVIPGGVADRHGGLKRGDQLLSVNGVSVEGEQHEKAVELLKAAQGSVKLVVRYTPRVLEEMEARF

LNX1_3, Q8TBB1 = molecular target: LNX1_3, Q8TBB1
MAGI3_2, Q5TCQ9 = molecular target: MAGI3_2, Q5TCQ9
MAST2, Q6P0Q8 = molecular target: MAST2, Q6P0Q8
MPDZ_5, O75970 = molecular target: T5, MPDZ_5, O75970
T5 sequence (O75970 695-796, limits assumed, looked up): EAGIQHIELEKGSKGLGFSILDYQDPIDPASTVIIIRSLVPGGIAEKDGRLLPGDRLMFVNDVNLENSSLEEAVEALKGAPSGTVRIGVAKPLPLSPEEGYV

PARD3B_1, Q8TEW8 = molecular target: T6, PARD3B_1, Q8TEW8
T6 sequence (Q8TEW8 196-299, limits assumed, looked up): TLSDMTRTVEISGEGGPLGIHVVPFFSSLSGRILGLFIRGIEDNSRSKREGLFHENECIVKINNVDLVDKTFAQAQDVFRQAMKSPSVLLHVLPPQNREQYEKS

PCLO, Q9Y6V0 = molecular target: T7, PCLO, Q9Y6V0
T7 sequence (Q9Y6V0 4491-4600, limits assumed, looked up): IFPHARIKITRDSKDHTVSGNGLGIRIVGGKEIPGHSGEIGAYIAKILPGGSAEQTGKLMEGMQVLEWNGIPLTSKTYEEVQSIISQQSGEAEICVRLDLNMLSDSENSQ

PDZD7_3, Q9H5P4 = molecular target: T8, PDZD7_3, Q9H5P4
T8 sequence (Q9H5P4 857-944, limits assumed, looked up): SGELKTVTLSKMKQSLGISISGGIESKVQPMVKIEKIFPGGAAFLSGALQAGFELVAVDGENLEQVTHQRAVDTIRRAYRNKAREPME

PICK1, Q9NRD5 = molecular target: PICK1, Q9NRD5
SNTG2, Q9NY99 = molecular target: T9, SNTG2, Q9NY99
T9 sequence (Q9NY99 68-166, limits assumed, looked up): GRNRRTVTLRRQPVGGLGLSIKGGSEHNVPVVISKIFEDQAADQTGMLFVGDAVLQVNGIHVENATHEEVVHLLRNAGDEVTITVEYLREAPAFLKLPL

TJP1_3, Q07157 = molecular target: TJP1_3, Q07157
TX1BP3, O14907 = molecular target: T10, TX1BP3, O14907
T10 sequence (O14907 10-122, limits assumed, looked up): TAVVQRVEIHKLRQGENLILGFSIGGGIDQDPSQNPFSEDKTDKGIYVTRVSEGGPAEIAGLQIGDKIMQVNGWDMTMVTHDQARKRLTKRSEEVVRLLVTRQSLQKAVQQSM

[1] = plain residues with an end cap or a label only (N-terminal biotin on a linker: ttds)
[2] = plain residues with an end cap or a label only (N-terminal biotin on a linker: ahx)

MAST2, Q6P0Q8, sequence (Q6P0Q8 1099-1202): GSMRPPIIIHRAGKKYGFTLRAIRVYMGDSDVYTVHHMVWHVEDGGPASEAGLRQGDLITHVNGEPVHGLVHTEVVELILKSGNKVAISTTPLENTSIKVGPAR
IL16_3, Q14005, sequence (Q14005 1107-1207): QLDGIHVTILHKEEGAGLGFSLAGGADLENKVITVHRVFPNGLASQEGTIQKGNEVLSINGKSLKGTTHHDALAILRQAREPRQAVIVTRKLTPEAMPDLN
Inadl_5, Q8NI35, sequence (Q8NI35 673-780): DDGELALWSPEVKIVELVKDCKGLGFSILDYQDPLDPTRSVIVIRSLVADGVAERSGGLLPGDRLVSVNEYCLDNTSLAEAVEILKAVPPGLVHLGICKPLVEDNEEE
GRIP2_3, Q9C0E4, sequence (Q9C0E4 238-339): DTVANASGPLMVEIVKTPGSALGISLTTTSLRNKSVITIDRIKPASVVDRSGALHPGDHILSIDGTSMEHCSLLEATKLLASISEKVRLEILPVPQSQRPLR
FRMPD4, Q14CM0, sequence (Q14CM0 67-160): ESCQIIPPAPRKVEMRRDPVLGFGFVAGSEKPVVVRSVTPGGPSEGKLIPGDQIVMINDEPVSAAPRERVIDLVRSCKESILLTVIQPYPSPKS
PICK1, Q9NRD5, sequence (Q9NRD5 17-115): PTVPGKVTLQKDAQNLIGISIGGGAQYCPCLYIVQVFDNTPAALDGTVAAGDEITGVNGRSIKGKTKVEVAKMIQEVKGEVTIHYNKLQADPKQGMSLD
LNX1_3, Q8TBB1, sequence (Q8TBB1 500-596): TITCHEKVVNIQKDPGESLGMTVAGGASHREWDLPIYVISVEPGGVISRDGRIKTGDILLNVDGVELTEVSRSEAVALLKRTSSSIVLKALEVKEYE
GRIP2_5, Q9C0E4, sequence (Q9C0E4 544-642): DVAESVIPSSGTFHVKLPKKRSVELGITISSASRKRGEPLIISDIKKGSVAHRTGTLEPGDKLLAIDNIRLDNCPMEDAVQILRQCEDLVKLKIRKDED
TJP1_3, Q07157, sequence (Q07157 416-512): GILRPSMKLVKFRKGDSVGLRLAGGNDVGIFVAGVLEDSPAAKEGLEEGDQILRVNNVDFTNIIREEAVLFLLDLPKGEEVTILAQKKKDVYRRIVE
GRASP, Q7Z6J2, sequence (Q7Z6J2 96-193): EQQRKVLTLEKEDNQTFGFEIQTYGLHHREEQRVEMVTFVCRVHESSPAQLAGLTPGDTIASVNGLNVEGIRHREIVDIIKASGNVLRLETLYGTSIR
DLG2_2, Q15700, sequence (Q15700 189-283): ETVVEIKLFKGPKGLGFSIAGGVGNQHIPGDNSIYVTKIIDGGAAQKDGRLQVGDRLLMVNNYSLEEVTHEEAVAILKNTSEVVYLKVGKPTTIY
GRIP2_7, Q9C0E4, sequence (Q9C0E4 934-1023): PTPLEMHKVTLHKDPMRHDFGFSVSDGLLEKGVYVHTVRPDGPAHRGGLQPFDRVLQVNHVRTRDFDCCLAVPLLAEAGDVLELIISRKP
LDB3, O75112, sequence (O75112 1-94): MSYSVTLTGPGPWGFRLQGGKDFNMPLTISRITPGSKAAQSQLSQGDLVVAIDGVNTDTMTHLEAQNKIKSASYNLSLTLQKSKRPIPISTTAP
MAGI3_2, Q5TCQ9, sequence (Q5TCQ9 398-503): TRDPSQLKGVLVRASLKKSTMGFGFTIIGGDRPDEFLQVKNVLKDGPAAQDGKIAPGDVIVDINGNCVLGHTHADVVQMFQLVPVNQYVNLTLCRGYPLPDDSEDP
Inadl_10, Q8NI35, sequence (Q8NI35 1673-1763): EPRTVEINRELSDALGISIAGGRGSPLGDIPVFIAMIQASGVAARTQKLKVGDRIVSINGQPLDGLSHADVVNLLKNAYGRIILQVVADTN

SEKHFRETEV [HTLV1-TAX1, P03409]
pKd (ARHGAP21, Q5T5U3; [1]): below the threshold
pKd (DLG1_1, Q12959; [1]): 5.19
pKd (DLG1_2, Q12959; [1]): 5.75
pKd (DLG1_3, Q12959; [1]): 5.22
pKd (DLG2_2, Q15700; [1]): 5.21
pKd (DLG3_3, Q92796; [1]): 5.34
pKd (FRMPD4, Q14CM0; [1]): below the threshold
pKd (GRASP, Q7Z6J2; [1]): below the threshold
pKd (GRIP2_3, Q9C0E4; [1]): below the threshold
pKd (GRIP2_5, Q9C0E4; [1]): below the threshold
pKd (GRIP2_7, Q9C0E4; [1]): 3.75
pKd (IL16_3, Q14005; [1]): below the threshold
pKd (Inadl_10, Q8NI35; [1]): below the threshold
pKd (Inadl_5, Q8NI35; [1]): below the threshold
pKd (LDB3, O75112; [1]): below the threshold
pKd (LIN7A, O14910; [1]): 3.82
pKd (LIN7B, Q9HAP6; [1]): 3.83
pKd (LNX1_3, Q8TBB1; [1]): 3.64
pKd (MAGI3_2, Q5TCQ9; [1]): 4.99
pKd (MAST2, Q6P0Q8; [1]): 5.42
pKd (MPDZ_5, O75970; [1]): below the threshold
pKd (PARD3B_1, Q8TEW8; [1]): below the threshold
pKd (PCLO, Q9Y6V0; [1]): below the threshold
pKd (PDZD7_3, Q9H5P4; [1]): 4.82
pKd (PICK1, Q9NRD5; [1]): below the threshold
pKd (SNTG2, Q9NY99; [1]): 4.12
pKd (TJP1_3, Q07157; [1]): below the threshold
pKd (TX1BP3, O14907; [1]): 6.2

HIVEALETDV [PBK, Q96KB5]
pKd (ARHGAP21, Q5T5U3; [1]): 3.91
pKd (DLG1_1, Q12959; [1]): 5.01
pKd (DLG1_2, Q12959; [1]): 5.66
pKd (DLG1_3, Q12959; [1]): below the threshold
pKd (DLG2_2, Q15700; [1]): 5.28
pKd (DLG3_3, Q92796; [1]): 3.88
pKd (FRMPD4, Q14CM0; [1]): below the threshold
pKd (GRASP, Q7Z6J2; [1]): below the threshold
pKd (GRIP2_3, Q9C0E4; [1]): below the threshold
pKd (GRIP2_5, Q9C0E4; [1]): below the threshold
pKd (GRIP2_7, Q9C0E4; [1]): 3.91
pKd (IL16_3, Q14005; [1]): below the threshold
pKd (Inadl_10, Q8NI35; [1]): below the threshold
pKd (Inadl_5, Q8NI35; [1]): below the threshold
pKd (LDB3, O75112; [1]): below the threshold
pKd (LIN7A, O14910; [1]): below the threshold
pKd (LIN7B, Q9HAP6; [1]): below the threshold
pKd (LNX1_3, Q8TBB1; [1]): below the threshold
pKd (MAGI3_2, Q5TCQ9; [1]): 4.29
pKd (MAST2, Q6P0Q8; [1]): 5.71
pKd (MPDZ_5, O75970; [1]): below the threshold
pKd (PARD3B_1, Q8TEW8; [1]): below the threshold
pKd (PCLO, Q9Y6V0; [1]): below the threshold
pKd (PDZD7_3, Q9H5P4; [1]): 4.6
pKd (PICK1, Q9NRD5; [1]): below the threshold
pKd (SNTG2, Q9NY99; [1]): 4.85
pKd (TJP1_3, Q07157; [1]): below the threshold
pKd (TX1BP3, O14907; [1]): 5.03

VNKVWDQSSV [CIT, O14578]
pKd (ARHGAP21, Q5T5U3; [1]): below the threshold
pKd (DLG1_1, Q12959; [1]): below the threshold
pKd (DLG1_2, Q12959; [1]): 3.48
pKd (DLG1_3, Q12959; [1]): 3.49
pKd (DLG2_2, Q15700; [1]): below the threshold
pKd (DLG3_3, Q92796; [1]): 3.7
pKd (FRMPD4, Q14CM0; [1]): below the threshold
pKd (GRASP, Q7Z6J2; [1]): 4.33
pKd (GRIP2_3, Q9C0E4; [1]): below the threshold
pKd (GRIP2_5, Q9C0E4; [1]): below the threshold
pKd (GRIP2_7, Q9C0E4; [1]): below the threshold
pKd (IL16_3, Q14005; [1]): below the threshold
pKd (Inadl_10, Q8NI35; [1]): below the threshold
pKd (Inadl_5, Q8NI35; [1]): below the threshold
pKd (LDB3, O75112; [1]): below the threshold
pKd (LIN7A, O14910; [1]): below the threshold
pKd (LIN7B, Q9HAP6; [1]): below the threshold
pKd (LNX1_3, Q8TBB1; [1]): below the threshold
pKd (MAGI3_2, Q5TCQ9; [1]): below the threshold
pKd (MAST2, Q6P0Q8; [1]): 5.14
pKd (MPDZ_5, O75970; [1]): below the threshold
pKd (PARD3B_1, Q8TEW8; [1]): below the threshold
pKd (PCLO, Q9Y6V0; [1]): below the threshold
pKd (PDZD7_3, Q9H5P4; [1]): below the threshold
pKd (PICK1, Q9NRD5; [1]): below the threshold
pKd (SNTG2, Q9NY99; [1]): below the threshold
pKd (TJP1_3, Q07157; [1]): below the threshold
pKd (TX1BP3, O14907; [1]): 6.25

EKLSSIESDV [GRIN2B, Q13224]
pKd (ARHGAP21, Q5T5U3; [2]): 3.71
pKd (DLG1_1, Q12959; [2]): 4.3
pKd (DLG1_2, Q12959; [2]): 4.97
pKd (DLG1_3, Q12959; [2]): below the threshold
pKd (DLG2_2, Q15700; [2]): below the threshold
pKd (DLG3_3, Q92796; [2]): below the threshold
pKd (FRMPD4, Q14CM0; [2]): below the threshold
pKd (GRASP, Q7Z6J2; [2]): below the threshold
pKd (GRIP2_3, Q9C0E4; [2]): below the threshold
pKd (GRIP2_5, Q9C0E4; [2]): below the threshold
pKd (GRIP2_7, Q9C0E4; [2]): 3.53
pKd (IL16_3, Q14005; [2]): 3.57
pKd (Inadl_10, Q8NI35; [2]): below the threshold
pKd (Inadl_5, Q8NI35; [2]): below the threshold
pKd (LDB3, O75112; [2]): below the threshold
pKd (LIN7A, O14910; [2]): below the threshold
pKd (LIN7B, Q9HAP6; [2]): below the threshold
pKd (LNX1_3, Q8TBB1; [2]): below the threshold
pKd (MAGI3_2, Q5TCQ9; [2]): 3.54
pKd (MAST2, Q6P0Q8; [2]): 4.49
pKd (MPDZ_5, O75970; [2]): below the threshold
pKd (PARD3B_1, Q8TEW8; [2]): below the threshold
pKd (PCLO, Q9Y6V0; [2]): below the threshold
pKd (PDZD7_3, Q9H5P4; [2]): 3.77
pKd (PICK1, Q9NRD5; [2]): below the threshold
pKd (SNTG2, Q9NY99; [2]): 4.04
pKd (TJP1_3, Q07157; [2]): below the threshold
pKd (TX1BP3, O14907; [2]): 4.74

PKRPFVESNV [TANC2, Q9HCD6]
pKd (ARHGAP21, Q5T5U3; [1]): below the threshold
pKd (DLG1_1, Q12959; [1]): 4.31
pKd (DLG1_2, Q12959; [1]): 4.65
pKd (DLG1_3, Q12959; [1]): 3.77
pKd (DLG2_2, Q15700; [1]): 4.33
pKd (DLG3_3, Q92796; [1]): 3.67
pKd (FRMPD4, Q14CM0; [1]): below the threshold
pKd (GRASP, Q7Z6J2; [1]): below the threshold
pKd (GRIP2_3, Q9C0E4; [1]): below the threshold
pKd (GRIP2_5, Q9C0E4; [1]): below the threshold
pKd (GRIP2_7, Q9C0E4; [1]): below the threshold
pKd (IL16_3, Q14005; [1]): below the threshold
pKd (Inadl_10, Q8NI35; [1]): below the threshold
pKd (Inadl_5, Q8NI35; [1]): below the threshold
pKd (LDB3, O75112; [1]): below the threshold
pKd (LIN7A, O14910; [1]): below the threshold
pKd (LIN7B, Q9HAP6; [1]): below the threshold
pKd (LNX1_3, Q8TBB1; [1]): below the threshold
pKd (MAGI3_2, Q5TCQ9; [1]): 4.55
pKd (MAST2, Q6P0Q8; [1]): 4.84
pKd (MPDZ_5, O75970; [1]): below the threshold
pKd (PARD3B_1, Q8TEW8; [1]): below the threshold
pKd (PCLO, Q9Y6V0; [1]): below the threshold
pKd (PDZD7_3, Q9H5P4; [1]): below the threshold
pKd (PICK1, Q9NRD5; [1]): below the threshold
pKd (SNTG2, Q9NY99; [1]): 4.37
pKd (TJP1_3, Q07157; [1]): below the threshold
pKd (TX1BP3, O14907; [1]): 5.9
